One data set is described as follows: Lysosomal release assay. It is filed as in vitro ADME, human. Particulars: pH 5.5, 24 h; for Release in lysosomal extract: 10 μM linker-drug, human liver lysosomes 0.17 mg/mL, cysteine 5 mM, 37° C. The text has this: Lysosomal release assays were run to measure the release of the degrader from the L1 moeity in an environment that mimics intracellular milieu. For the degrader to be active at binding BRM and ferrying it to the ubiquitin ligase, the L1 must first be released.
The assay was run using an L1 bound to the BRM-binding compound, named “L1-BRM1-#” that corresponds to the respective CIDE. The test determine whether cleavage of the covalent attachment of the L1 to the BRM portion occurred. Linker-drugs ([…]) were incubated with human liver lysosomes (0.17 mg/mL) and cysteine (5 mM) in 100 mM citric acid buffer pH 5.5 for 24 h. The samples were analyzed by Q Exactive Orbitrap mass specrometers using LC mobile phase containing (A) 0.1% formic acid in water and (B) 0.1% formic acid in acetonitrile in a gradient.

Data set [1] concerns the target T1, BRM (Homo sapiens, UniProt P51531).
T1 construct: endogenous in cells; host or cells: HCC515
The data set can be described thus: Cell assay to determine DC50 and Dmax (nuclear BRM immunofluorescence), NCI-H1944 cells. It is filed as cell-based. The conditions noted are these: 24 h drug treatment, nuclear BRM signal. As for the experimental part:
(§1) Cell based assays were run in […] cell lines to determine the DC50 and Dmax of Ab-L1-CIDE. BJAB, HCC515 and H1944 cells were plated in 384 well plates at 5000, 4000 and 2500 cells/well, respectively. The next day Ab-CIDEs were added. Following 24 h of drug treatment the cells were fixed with 4% formaldehyde for 15 minutes. The plates were washed three time with PBS. The cells were incubated with IF blocking solution (10% FCS, 1% BSA, […] in PBS). After 1.5 h a 2× solution of primary antibody diluted in IF blocking buffer: BRM (Cell signaling Cat #11966, 1:2000) was added. The plates were incubated over night at 4° C. The following morning cells were washed three time with PBS. Cells were then incubated with secondary antibodies (rabbit-Alexa 488 A21206 (1:2000)) for 1 h at room temperature in the dark. Hoechst H3570 at 1:5000 was added to the wells and the plates were incubated for an additional 30 minutes. Plates were wash 3×PBS and image on Opera Phenix™ High Content Screening System. Using nuclear staining as a mask, nuclear BRM mean signal intensity was quantified.
(§2) The data evidence the successful antibody targeting strategies disclosed herein.

Data set [2] deals with T1, BRM. In words: Cell assay to determine DC50 and Dmax (nuclear BRM immunofluorescence), HCC515 cells. It is filed as cell-based. Particulars: 24 h drug treatment, nuclear BRM signal. The method, then: as §1, §2

Consider six molecules from patent publication US20230330249A1, “ANTIBODY-CONJUGATED CHEMICAL INDUCERS OF DEGRADATION OF BRM AND METHODS THEREOF” (Genentech, Inc., priority 2020, published 2023).

T1 sequence (P51531 whole entry): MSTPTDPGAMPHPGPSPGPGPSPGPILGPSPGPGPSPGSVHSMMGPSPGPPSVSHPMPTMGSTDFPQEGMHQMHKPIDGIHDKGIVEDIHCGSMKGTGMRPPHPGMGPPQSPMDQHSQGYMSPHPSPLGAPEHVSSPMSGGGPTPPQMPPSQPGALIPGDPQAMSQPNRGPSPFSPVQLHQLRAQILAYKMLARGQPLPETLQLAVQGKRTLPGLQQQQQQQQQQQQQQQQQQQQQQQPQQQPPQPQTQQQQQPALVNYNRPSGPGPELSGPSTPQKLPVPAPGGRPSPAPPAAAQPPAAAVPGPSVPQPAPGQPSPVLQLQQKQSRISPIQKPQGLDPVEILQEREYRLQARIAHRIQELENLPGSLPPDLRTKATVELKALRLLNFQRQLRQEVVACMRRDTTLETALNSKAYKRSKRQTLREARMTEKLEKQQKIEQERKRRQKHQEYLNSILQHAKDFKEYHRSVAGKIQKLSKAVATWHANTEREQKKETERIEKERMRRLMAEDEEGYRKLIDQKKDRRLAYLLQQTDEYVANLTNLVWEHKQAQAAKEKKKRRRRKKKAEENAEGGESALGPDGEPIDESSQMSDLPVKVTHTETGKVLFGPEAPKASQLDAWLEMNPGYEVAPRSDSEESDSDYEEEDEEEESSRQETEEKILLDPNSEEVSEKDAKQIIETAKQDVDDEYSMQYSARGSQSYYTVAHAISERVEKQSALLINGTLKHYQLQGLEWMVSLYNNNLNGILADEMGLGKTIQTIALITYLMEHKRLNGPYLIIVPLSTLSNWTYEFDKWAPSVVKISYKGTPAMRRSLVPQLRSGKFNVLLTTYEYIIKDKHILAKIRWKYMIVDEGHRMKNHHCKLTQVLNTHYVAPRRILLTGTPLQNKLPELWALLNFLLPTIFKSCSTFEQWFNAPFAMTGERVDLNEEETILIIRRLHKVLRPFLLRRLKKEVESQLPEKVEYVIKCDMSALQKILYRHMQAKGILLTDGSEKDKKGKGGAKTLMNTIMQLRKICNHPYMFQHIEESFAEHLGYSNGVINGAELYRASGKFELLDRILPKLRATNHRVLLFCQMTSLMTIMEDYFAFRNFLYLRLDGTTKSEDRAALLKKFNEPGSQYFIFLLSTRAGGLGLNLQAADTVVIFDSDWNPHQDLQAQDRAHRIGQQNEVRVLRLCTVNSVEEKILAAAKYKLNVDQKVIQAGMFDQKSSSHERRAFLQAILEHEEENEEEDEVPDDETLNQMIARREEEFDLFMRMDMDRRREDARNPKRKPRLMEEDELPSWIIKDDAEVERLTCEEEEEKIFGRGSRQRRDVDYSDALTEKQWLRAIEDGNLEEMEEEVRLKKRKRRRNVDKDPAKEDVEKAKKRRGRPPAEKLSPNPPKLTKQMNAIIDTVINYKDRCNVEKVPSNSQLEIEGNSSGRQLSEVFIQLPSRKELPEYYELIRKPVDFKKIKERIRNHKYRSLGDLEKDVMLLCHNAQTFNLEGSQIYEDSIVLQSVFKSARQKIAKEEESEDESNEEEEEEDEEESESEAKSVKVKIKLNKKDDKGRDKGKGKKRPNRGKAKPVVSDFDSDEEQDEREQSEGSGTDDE

For the molecule `Cc1ncsc1-c1ccc([C@H](C)NC(=O)[C@@H]2C[C@@H](OC(=O)OC(C)C(C)(C)SS(C)(=O)=O)CN2C(=O)[C@@H](c2cc(OCCN3CCN(CCOc4cc(N5C6CCC5CN(c5cc(-c7ccccc7OCOP(=O)(O)O)nnc5N)C6)ccn4)[C@H](C)C3)no2)C(C)C)cc1` (stereo partly shown) [L1-BRM1-9], the “Release in lysosomal extract” value in the data set “Lysosomal release assay” was “Yes (“Yes” indicates >50% free drug observed after 24 h incubation at 37 °C in lysosomal extract.)”. As to `Cc1ncsc1-c1ccc([C@H](C)NC(=O)[C@@H]2C[C@@H](O)CN2C(=O)[C@@H](c2cc(OCCN3CCN(CCOc4cc(N5C6CCC5CN(c5cc(-c7ccccc7O)nnc5NC(=O)OCc5ccc(NC(=O)[C@H](CCCNC(N)=O)NC(=O)C7(C(=O)NCCCCCN8C(=O)C=CC8=O)CCC7)cc5)C6)ccn4)[C@H](C)C3)no2)C(C)C)cc1` [L1-BRM1-20], the “Release in lysosomal extract” value in “Lysosomal release assay” was “Yes (“Yes” indicates >50% free drug observed after 24 h incubation at 37 °C in lysosomal extract.)”. As for `Cc1ncsc1-c1ccc([C@H](C)NC(=O)[C@@H]2C[C@@H](O)CN2C(=O)[C@@H](c2cc(OCCN3CCN(CCOc4cc(N5C6CCC5CN(c5cc(-c7ccccc7OCc7ccc(NC(=O)[C@H](CCCNC(N)=O)NC(=O)C8(C(=O)NCCCCCN9C(=O)C=CC9=O)CCC8)cc7)nnc5N)C6)ccn4)[C@H](C)C3)no2)C(C)C)cc1` [L1-BRM1-13], the “Release in lysosomal extract” value in the data set “Lysosomal release assay” was “Yes (“Yes” indicates >50% free drug observed after 24 h incubation at 37 °C in lysosomal extract.)”.

For the molecule `Cc1ncsc1-c1ccc([C@H](C)NC(=O)[C@@H]2C[C@@H](O)CN2C(=O)[C@@H](c2cc(OCCN3CCN(CCOc4cc(N5C6CCC5CN(c5cc(-c7ccccc7OS(=O)(=O)Oc7cc(C(=O)NCCOCCOCCOCCn8cc(COCCOCCOCCOCCNC(=O)CCN9C(=O)C=CC9=O)nn8)ccc7O[C@@H]7O[C@H](CO)[C@H](O)[C@H](O)[C@H]7O)nnc5N)C6)ccn4)[C@H](C)C3)no2)C(C)C)cc1` [L1-CIDE-BRM1-15], the “Release of the degrader in lysosomal extracts” value in the data set “Lysosomal release assay” (human liver lysosomes) is reported as “did not release the degrader”.

B1: Thio Hu Anti-TfR1.NG2LH.FcRn null high DAR [HC:L174C HC:Y373C LC:K149C] MC-sqCit BRM CIDE Ab-L1-CIDE-BRM1-13 (conjugate)
heavy: EVQLVQSGAEVKKPGASVKVSCKASGYTFTSYWMHWVRQAPGQRLEWIGEINPTNGRTNYIEKFKSRATLTVDKSASTAYMELSSLRSEDTAVYYCARGTRAYHYWGQGTMVTVSSASTKGPSVFPLAPSSKSTSGGTAALGCLVKDYFPEPVTVSWNSGALTSGVHTFPAVCQSSGLYSLSSVVTVPSSSLGTQTYICNVNHKPSNTKVDKKVEPKSCDKTHTCPPCPAPPVAGPSVFLFPPKPKDTLMISRTPEVTCVVVDVSHEDPEVKFNWYVDGVEVHNAKTKPREEQYGSTYRVVSVLTVLHQDWLNGKEYKCKVSNKALPAPIEKTISKAKGQPREPQVYTLPPSREEMTKNQVSLTCLVKGFCPSDIAVEWESNGQPENNYKTTPPVLDSDGSFFLYSKLTVDKSRWQQGNVFSCSVMHEALHNHYTQKSLSLSPGK
light: DIQMTQSPSSLSASVGDRVTITCRASDNLYSNLAWYQQKPGKSPKLLVYDATNLADGVPSRFSGSGSGTDYTLTISSLQPEDFATYYCQHFWGTPLTFGQGTKVEIKRTVAAPSVFIFPPSDEQLKSGTASVVCLLNNFYPREAKVQWCVDNALQSGNSQESVTEQDSKDSTYSLSSTLTLSKADYEKHKVYACEVTHQGLSSPVTKSFNRGEC
As for B1, in the data set with BRM [1], the “NCI-HI944 DC50” value came out at 0.07 µg/mL and the “NCI-HI944 Dmax” value was 77.

B2: Thio Hu Anti-TfR2.NG2LH high DAR [HC:L174C HC:Y373C LC:K149C] diMe Me disulfide BRM degrader phos Ab-L1-CIDE-BRM1-9 (conjugate)
heavy: EVQLVQSGAEVKKPGASVKVSCKASGYTFTSYWMHWVRQAPGQRLEWIGEINPTNGRTNYIEKFKSRATLTVDKSASTAYMELSSLRSEDTAVYYCARGTRAYHYWGQGTMVTVSSASTKGPSVFPLAPSSKSTSGGTAALGCLVKDYFPEPVTVSWNSGALTSGVHTFPAVCQSSGLYSLSSVVTVPSSSLGTQTYICNVNHKPSNTKVDKKVEPKSCDKTHTCPPCPAPPVAGPSVFLFPPKPKDTLMISRTPEVTCVVVDVSHEDPEVKFNWYVDGVEVHNAKTKPREEQYGSTYRVVSVLTVLHQDWLNGKEYKCKVSNKALPAPIEKTISKAKGQPREPQVYTLPPSREEMTKNQVSLTCLVKGFCPSDIAVEWESNGQPENNYKTTPPVLDSDGSFFLYSKLTVDKSRWQQGNVFSCSVMHEALHNHYTQKSLSLSPGK
light: DIQMTQSPSSLSASVGDRVTITCRASDNLYSNLAWYQQKPGKSPKLLVYDATNLADGVPSRFSGSGSGTDYTLTISSLQPEDFATYYCQHFAGTPLTFGQGTKVEIKRTVAAPSVFIFPPSDEQLKSGTASVVCLLNNFYPREAKVQWCVDNALQSGNSQESVTEQDSKDSTYSLSSTLTLSKADYEKHKVYACEVTHQGLSSPVTKSFNRGEC
With B2, in the data set with BRM [2], the “HCC515 DC50” value is 0.12 µg/mL and the “HCC515 Dmax” value was 96. In addition, in the data set with BRM [1], the “NCI-HI944 DC50” value was determined as 0.74 µg/mL and the “NCI-HI944 Dmax” value is recorded as 94.
